Consider five molecules from patent publication US20200010567A1 (NEURIMMUNE, published 2020).

One assay has as its target T1, PA20: H-(PA)20HHHHHH-NH2 (C-terminal amide).
T1 peptide: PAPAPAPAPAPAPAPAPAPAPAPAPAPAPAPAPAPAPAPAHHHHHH
In words: indirect ELISA, coated His-tagged peptide. The gist of the method: (§1)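 Antibodies at graded concentrations bound for 1 h at room temperature to wells carrying 50 μg/ml His-tagged repeat peptide (pH 9.42 carbonate coating, 2% BSA block). Bound IgG read colorimetrically via HRP anti-human Fcγ; EC₅₀ estimated by non-linear regression.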

Another assay deals with T2, PA10: H-(PA)10HHHHHH-NH2 (C-terminal amide).
T2 peptide: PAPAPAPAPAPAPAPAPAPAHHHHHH
Kind of assay: indirect ELISA, coated His-tagged peptide. The gist of the method:
as §1

The target of a further assay is T3, PA6: H-(PA)6HHHHHH-NH2.
T3 peptide: H-PAPAPAPAPAPAHHHHHH-NH2
In words: indirect ELISA, coated His-tagged peptide. The gist of the method: as §1
Background: ELISA stands for enzyme-linked immunosorbent assay.

The target of a further assay is T4, PA5: H-(PA)5HHHHHH-NH2.
T4 peptide: H-PAPAPAPAPAHHHHHH-NH2
Kind of assay: indirect ELISA, coated His-tagged peptide. The gist of the method: as §1

The next assay deals with T5, GP10: H-(GP)10HHHHHH-NH2 (C-terminal amide).
T5 peptide: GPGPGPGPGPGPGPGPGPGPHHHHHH
In words: indirect ELISA, coated His-tagged peptide. In short, it runs like this:
as §1

For another assay, the target named is T6, PR20: H-(PR)20HHHHHH-NH2 (C-terminal amide).
T6 peptide: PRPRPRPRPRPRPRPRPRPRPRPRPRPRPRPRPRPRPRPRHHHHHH
Kind of assay: indirect ELISA, coated His-tagged peptide. The gist of the method: as §1

For the next assay, the target named is T7, PR10: H-(PR)10HHHHHH-NH2 (C-terminal amide).
T7 peptide: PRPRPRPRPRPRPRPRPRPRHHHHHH
Kind of assay: indirect ELISA, coated His-tagged peptide. In short, it runs like this: as §1

The target in another assay is T8, PR6: H-(PR)6HHHHHH-NH2.
T8 peptide: H-PRPRPRPRPRPRHHHHHH-NH2
In words: indirect ELISA, coated His-tagged peptide. In short, it runs like this: as §1

The target of a further assay is T9, GR20: H-(GR)20HHHHHH-NH2 (C-terminal amide).
T9 peptide: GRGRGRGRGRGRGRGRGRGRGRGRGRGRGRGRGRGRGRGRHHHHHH
In words: indirect ELISA, coated His-tagged peptide. The gist of the method: as §1

Another assay deals with T10, GR10: H-(GR)10HHHHHH-NH2 (C-terminal amide).
T10 peptide: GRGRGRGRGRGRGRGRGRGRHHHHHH
Kind of assay: indirect ELISA, coated His-tagged peptide. The gist of the method:
as §1

A further assay deals with T11, GR6: H-(GR)6HHHHHH-NH2.
T11 peptide: H-GRGRGRGRGRGRHHHHHH-NH2
Kind of assay: indirect ELISA, coated His-tagged peptide. The gist of the method:
as §1

The next assay deals with T12, GR5: H-(GR)5HHHHHH-NH2.
T12 peptide: H-GRGRGRGRGRHHHHHH-NH2
Kind of assay: indirect ELISA, coated His-tagged peptide. In short, it runs like this:
as §1

The next assay addresses T13, GR4: H-(GR)4HHHHHH-NH2.
T13 peptide: H-GRGRGRGRHHHHHH-NH2
In words: indirect ELISA, coated His-tagged peptide. The gist of the method:
as §1

Another assay concerns the target T14, GR3: H-(GR)3HHHHHH-NH2.
T14 peptide: H-GRGRGRHHHHHH-NH2
In words: indirect ELISA, coated His-tagged peptide. In short, it runs like this: as §1

The target in another assay is T15, GP3: H-(GP)3HHHHHH-NH2.
T15 peptide: H-GPGPGPHHHHHH-NH2
In words: indirect ELISA, His-tagged peptide coated at 50 ug/ml, antibody titrated [also D00026 FIG. 7J]. An excerpt:
(§2) In brief, dipeptide repeat proteins were synthesized and purified by Schafer-N (Copenhagen, Denmark): GA₂₀: H-(GA)₂₀HHHHHH-NH₂; GA₁₀: H-(GA)₁₀HHHHHH-NH₂; GA₆: H-(GA)₆HHHHHH-NH₂; GA₅: H-(GA)₅HHHHHH-NH₂; GA₄: H-(GA)₄HHHHHH-NH₂; GA₃: H-(GA)₃HHHHHH-NH₂; GA₂: H-(GA)₂HHHHHH-NH₂; GP₂₀: H-(GP)₂₀HHHHHH-NH₂; GP₁₀: H-(GP)₁₀HHHHHH-NH₂; GP₆: H-(GP)₆HHHHHH-NH₂; GP₅: H-(GP)₅HHHHHH-NH₂; GP₄: H-(GP)₄HHHHHH-NH₂; GP₃: H-(GP)₃HHHHHH-NH₂; GP₂: H-(GP)₂HHHHHH-NH₂. GR₂₀: H-(GR)₂₀HHHHHH-NH₂; GR₁₀: H-(GR)₁₀HHHHHH-NH₂; GR₆: H-(GR)₆HHHHHH-NH₂; GR₅: H-(GR)₅HHHHHH-NH₂; GR₄: H-(GR)₄HHHHHH-NH₂; GR₃: H-(GR)₃HHHHHH-NH₂; GR₂: H-(GR)₂HHHHHH-NH₂; PA₂₀: H-(PA)₂₀HHHHHH-NH₂; PA₁₀: H-(PA)₁₀HHHHHH-NH₂; PA₆: H-(PA)₆HHHHHH-NH₂; PA₅: H-(PA)₅HHHHHH-NH₂; PA₄: H-(PA)₄HHHHHH-NH₂; PA₃: H-(PA)₃HHHHHH-NH₂; PA₂: H-(PA)₂HHHHHH-NH₂; PR₂₀: H-(PR)₂₀HHHHHH-NH₂; PR₁₀: H-(PR)₁₀HHHHHH-NH₂; PR₆: H-(PR)₆HHHHHH-NH₂; PR₅: H-(PR)₅HHHHHH-NH₂; PR₄: H-(PR)₄HHHHHH-NH₂; PR₃: H-(PR)₃HHHHHH-NH₂; PR₂: H-(PR)₂HHHHHH-NH₂. 96-well microplates (Corning Incorporated, Corning, USA) were coated with dipeptide repeat protein peptides at a concentration of 50 μg/ml in coating buffer (15 mM Na₂CO₃, 35 mM NaHCO₃, pH 9.42). Non-specific binding sites were blocked for 1 h at room temperature with PBS/0.1% Tween®-20 containing 2% BSA (Sigma-Aldrich, Buchs, Switzerland). Primary antibodies were diluted to the indicated concentrations and incubated 1 h at room temperature, followed by incubation with a donkey anti-human IgG Fcγ-specific antibody conjugated with HRP (Jackson ImmunoResearch Laboratories, Inc., West Grove, USA). Binding was determined by measurement of HRP activity in a standard colorimetric assay. EC₅₀ values were estimated by non-linear regression using GraphPad Prism software (San Diego, USA).

The next assay concerns the target T16, GP2: H-(GP)2HHHHHH-NH2.
T16 peptide: H-GPGPHHHHHH-NH2
The assay is described as above.
Text: as §2

B1: NI-308.4M1 (antibody, V domains shown)
VH: EVQLVETGGGVVQPGGSLRLSCEASGFTIGTYAMHWVRQFPGKGLDWVAVISFDGTTEYYTDAVKGRFTISRDNAKNTLYLQMNYLRGDDTAIYFCARDFTSSGETGSWTQVPDLWGQGTLVTVSS
VL: CEIVMTQSPATLSLSPGERATLSCRASQSVTKYLAWYQQKPGQAPRLLIYDVSYRAAGTPARFSGSGSGTDFTLTISSLEPEDFAVYYCHQRSSWPPVTFGGGTKVEIK
notes: Recombinant complete human IgG1, kappa
One may read the EC50 as the concentration at which the effect is half-maximal. Turning to B1, the EC50 with PA20: H-(PA)20HHHHHH-NH2 was found to be 0.06 nM; with PA10: H-(PA)10HHHHHH-NH2, 0.06 nM; with PA6: H-(PA)6HHHHHH-NH2 it was 4.3 nM; in the assay with PA5: H-(PA)5HHHHHH-NH2, 26.9 nM.

B2: NI-308.46E9 (antibody, V domains shown)
VH: QVQLQESGPGLVKPSETLSLTCTVSGASISGSTYYWGWIRQPPGKGLEYIGRIYYSGSTYYNPSLKSRATISVDTSKNQLSLTLSSVTAADTAVYYCVRPFYAGSGNSPFDYWGQGTLVTVSS
VL: CEIVLTQSPATVSVSPGERATLSCRASQSVSTNLAWYQQKPGQPPRLLIYGASTRATGIPARFSGSGSGAEFTLTISSLQSEDFVVYYCQQYNNWPPAFGGGTKVEIK
notes: as for B1
On to B2, for which, in the assay with GP10: H-(GP)10HHHHHH-NH2, it took 63.3 nM to reach a half-maximal effect (EC50).

B3: NI-308.24E11 (antibody, V domains shown)
VH: QVQLQESGPGLVKPSETLSLTCTVSTTSLRSYFWSWIRQPPGKGLEWIGYVYYSGSTIYNPSLKNRVTISIDTSKNQFSLNLRSVTAADTAMYFCARGVPAETDARDFPPYYFDHWGQGTLVTVSS
VL: CDIQLTQSPSSLSASVGNRITFTCQASQDIRYYLNWYQQKPGKAPKLLIYDVSNLDTGVPPRFSGSGSGTNFTFTISSLQPEDIAVYYCQQYEGLPVTFGGGTKVEIK
notes: as for B1
Turning to B3, the figures for the EC50 with PR20: H-(PR)20HHHHHH-NH2, with PR10: H-(PR)10HHHHHH-NH2 and in the assay with PR6: H-(PR)6HHHHHH-NH2 were 11.3 nM, 31.7 nM and above 200 nM, respectively.

B4: NI-308.6B11 (antibody, V domains shown)
VH: EVQLVQSGAEVKRPGASVKVSCKVSGYTLTELSMHWVRQAPGKGLEWMGGFDPEDGETVYAQKFQGRVTMTEDTSTDTAYMELSSLRSEDTALYHCATYGSSWHWNEGNEGSYYFDYWGQGTLVTVSS
VL: CDIQMTQSPSSLSASVGDRVTITCQASQDISIYLNWYQQKPGKAPKLLIYDASNLETGVPSRFSGSGSGTDFTFTISGLQPEDVARYYCQQYDDLPITFGQGTRLEIK
notes: as for B1
Consider B4, for which the EC50 in the assay with GR20: H-(GR)20HHHHHH-NH2 turned out to be 0.25 nM; with GR10: H-(GR)10HHHHHH-NH2, 1.3 nM; with GR6: H-(GR)6HHHHHH-NH2, 0.33 nM; with GR5: H-(GR)5HHHHHH-NH2 it was 0.47 nM; with GR4: H-(GR)4HHHHHH-NH2 it was 13.2 nM; in the assay with GR3: H-(GR)3HHHHHH-NH2, 14.3 nM.

B5: NI-308.5G2 (antibody, V domains shown)
VH: EVQLVQSGADLRNPGASVTVSCTASGYHFADNAINWLRQAPGQRLEWMGWINIYSGNTKYSQNFQGRVTFTRNTSASTAFMHLRSLRSEDTAVYFCARDPDSSGYYLPYFDYWGQGTLVTVSS
VL: DIQLTQSPDSLTLSLGERATINCKSSQSVFYNSNNKNYLAWYQQKPGQPPKLLMYWASTRESGVTDRFSGSGSGTDFTLTITNLQAEDVAVYYCQQFYSSPLTFGGGTKVEIK
notes: as for B1
On to B5, for which the binding result with GP3: H-(GP)3HHHHHH-NH2 and with GP2: H-(GP)2HHHHHH-NH2 was “no binding (tested: about 4x10^5 pM (last point))” each time.
